Paper PMC8280820, “Phospho‐regulation, nucleotide binding and ion access control in potassium‐chloride cotransporters” (The EMBO Journal, 2021)

Molecular target: the molecule itself
Assay: cryo-EM structure; single-particle cryo-EM of the purified transporter in digitonin, 150 mM NaCl, 20 mM HEPES pH 7.5 (KCC3b-PM also in KCl); homodimer

B1: KCC1Δ19 (human potassium-chloride cotransporter KCC1, isoform A, N-terminally deleted, L20-S1085) (domain or fragment, UniProt Q9UP95 20-1085, looked up)
chain: LEGLSWVDYGERAELDDSDGHGNHRESSPFLSPLEASRGIDYYDRNLALFEEELDIRPKVSSLLGKLVSYTNLTQGAKEHEEAESGEGTRRRAAEAPSMGTLMGVYLPCLQNIFGVILFLRLTWMVGTAGVLQALLIVLICCCCTLLTAISMSAIATNGVVPAGGSYFMISRSLGPEFGGAVGLCFYLGTTFAAAMYILGAIEILLTYIAPPAAIFYPSGAHDTSNATLNNMRVYGTIFLTFMTLVVFVGVKYVNKFASLFLACVIISILSIYAGGIKSIFDPPVFPVCMLGNRTLSRDQFDICAKTAVVDNETVATQLWSFFCHSPNLTTDSCDPYFMLNNVTEIPGIPGAAAGVLQENLWSAYLEKGDIVEKHGLPSADAPSLKESLPLYVVADIATSFTVLVGIFFPSVTGIMAGSNRSGDLRDAQKSIPVGTILAIITTSLVYFSSVVLFGACIEGVVLRDKYGDGVSRNLVVGTLAWPSPWVIVIGSFFSTCGAGLQSLTGAPRLLQAIAKDNIIPFLRVFGHGKVNGEPTWALLLTALIAELGILIASLDMVAPILSMFFLMCYLFVNLACAVQTLLRTPNWRPRFKYYHWALSFLGMSLCLALMFVSSWYYALVAMLIAGMIYKYIEYQGAEKEWGDGIRGLSLSAARYALLRLEEGPPHTKNWRPQLLVLLKLDEDLHVKYPRLLTFASQLKAGKGLTIVGSVIQGSFLESYGEAQAAEQTIKNMMEIEKVKGFCQVVVASKVREGLAHLIQSCGLGGMRHNSVVLGWPYGWRQSEDPRAWKTFIDTVRCTTAAHLALLVPKNIAFYPSNHERYLEGHIDVWWIVHDGGMLMLLPFLLRQHKVWRKCRMRIFTVAQMDDNSIQMKKDLAVFLYHLRLEAEVEVVEMHNSDISAYTYERTLMMEQRSQMLRQMRLTKTEREREAQLVKDRHSALRLESLYSDEEDESAVGADKIQMTWTRDKYMTETWDPSHAPDNFRELVHIKPDQSNVRRMHTAVKLNEVIVTRSHDARLVLLNMPGPPRNSEGDENYMEFLEVLTEGLERVLLVRGGGREVITIYS
modifications: phosphoserine at S88, S734 and S1050 (by proteomics analysis); not phosphorylated at T926/T983
notes: KCC1 (SLC12A4), human, isoform A, residues L20-S1085; Cloned into the pHTBV vector with and without GFP; also called KCC1 (construct Δ19); Δ19-deleted human KCC1; not shown: twin-Strep, C-terminal, cleaved; His10, C-terminal, cleaved
How did the “stoichiometry N” value turn out when B1 was run?
Its value is 2.

B2: KCC3b-PM (human potassium-chloride cotransporter KCC3 isoform B, phospho-mimetic S45D/T940D/T997D, M1-S1099) (natural protein, UniProt Q9UHW9-2 1-1099, looked up)
chain: MPHFTVTKVEDPEEGAAASISQEPSLADIKARIQDSDEPDLSQNDITGEHSQLLDDGHKKARNAYLNNSNYEEGDEYFDKNLALFEEEMDTRPKVSSLLNRMANYTNLTQGAKEHEEAENITEGKKKPTKTPQMGTFMGVYLPCLQNIFGVILFLRLTWVVGTAGVLQAFAIVLICCCCTMLTAISMSAIATNGVVPAGGSYFMISRALGPEFGGAVGLCFYLGTTFAAAMYILGAIEIFLVYIVPRAAIFHSDDALKESAAMLNNMRVYGTAFLVLMVLVVFIGVRYVNKFASLFLACVIVSILAIYAGAIKSSFAPPHFPVCMLGNRTLSSRHIDVCSKTKEINNMTVPSKLWGFFCNSSQFFNATCDEYFVHNNVTSIQGIPGLASGIITENLWSNYLPKGEIIEKPSAKSSDVLGSLNHEYVLVDITTSFTLLVGIFFPSVTGIMAGSNRSGDLKDAQKSIPIGTILAILTTSFVYLSNVVLFGACIEGVVLRDKFGDAVKGNLVVGTLSWPSPWVIVIGSFFSTCGAGLQSLTGAPRLLQAIAKDNIIPFLRVFGHSKANGEPTWALLLTAAIAELGILIASLDLVAPILSMFFLMCYLFVNLACALQTLLRTPNWRPRFRYYHWALSFMGMSICLALMFISSWYYAIVAMVIAGMIYKYIEYQGAEKEWGDGIRGLSLSAARFALLRLEEGPPHTKNWRPQLLVLLKLDEDLHVKHPRLLTFASQLKAGKGLTIVGSVIVGNFLENYGEALAAEQTIKHLMEAEKVKGFCQLVVAAKLREGISHLIQSCGLGGMKHNTVVMGWPNGWRQSEDARAWKTFIGTVRVTTAAHLALLVAKNISFFPSNVEQFSEGNIDVWWIVHDGGMLMLLPFLLKQHKVWRKCSIRIFTVAQLEDNSIQMKKDLATFLYHLRIEAEVEVVEMHDSDISAYTYERDLMMEQRSQMLRHMRLSKTERDREAQLVKDRNSMLRLTSIGSDEDEETETYQEKVHMDWTKDKYMASRGQKAKSMEGFQDLLNMRPDQSNVRRMHTAVKLNEVIVNKSHEAKLVLLNMPGPPRNPEGDENYMEFLEVLTEGLERVLLVRGGGSEVITIYS
modifications: phosphorylated at S685, T727, S930 and Y1070 (by proteomics analysis; the paper says likely only in a subset of the particles for some sites); not phosphorylated at T106/T109
notes: KCC3 (SLC12A6), human, isoform B (KCC3b), residues M1-S1099 (printed length 1099); numbers count on: the B-isoform; Synthesized gene (GenScript, Twist Bioscience) subcloned into pHTBV with C-terminal twin-strep, 10-His and GFP; also called KCC3‐PM; KCC3b (construct PM); not shown: twin-Strep, C-terminal, cleaved; His10, C-terminal, cleaved
How did the “stoichiometry N” value turn out when B2 was run?
Its value is 2.
